Assay [1] addresses human insulin receptor extracellular domain (HIR ECD) (human) (UniProt P06213). The assay is described as follows: ELISA, HIR ECD plated, biotinylated goat anti-human IgG detection. A general note: An ELISA detects its analyte on a solid surface through an enzyme-linked reagent.
For assay [2] the target is unchanged. The assay is described as follows: ELISA, HIR ECD plated; against HIR Ab alone.
Assay [3] has the same target. The assay is described as follows: ELISA, HIR ECD plated (HIR receptor assay).

Drawing on patent publication US20240252667A1, this text covers EC50 and reduction in receptor binding affinity for two substances.

What is called EC50 is the midpoint of the concentration-response curve. The low end stands for an effect from little substance, the high end for a need for much substance. In turn, “HIR Ab-GUSB fusion protein (GUSB fused to the carboxyl terminus of the HIR Ab heavy chain) (from UniProt P08236 23-633) (antibody)” displayed an EC50 in assay [1] of 0.81 nM.

In the case of “GUSB-HIR Ab fusion protein (GUSB fused to the amino terminus of the HIR Ab heavy chain) (from UniProt P08236 23-633) (antibody)”, in assay [2], the reduction in receptor binding affinity was 95%. For the same substance, the EC50 in assay [3] came out at 4.8 nM.
